The numbers were not newly measured in PMC9971567, which cites them from elsewhere.

Broadly, the Kd is the free concentration of one partner at which half of the binding sites on the other are occupied at equilibrium, for simple one-to-one binding.

The target in this series is Intimin C terminus (Escherichia coli) (UniProt P19809).
Sequence of UniProt P19809 (P19809 660-939): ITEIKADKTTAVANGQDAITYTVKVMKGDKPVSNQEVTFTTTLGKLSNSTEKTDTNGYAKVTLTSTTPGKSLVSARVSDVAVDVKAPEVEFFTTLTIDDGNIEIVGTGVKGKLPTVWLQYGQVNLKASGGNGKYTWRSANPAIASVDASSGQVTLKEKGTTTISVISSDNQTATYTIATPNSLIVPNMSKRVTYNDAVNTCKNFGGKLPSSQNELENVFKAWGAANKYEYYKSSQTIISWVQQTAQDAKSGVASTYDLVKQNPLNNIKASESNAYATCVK

In the case of Tir central loop (from UniProt B7UM99), the dissociation constant Kd is 10 nM.
